# IntAct's records for PubMed 20453860
# B1: Vacuolar protein sorting-associated protein 33 (Saccharomyces cerevisiae), P20795 (parent)
# chain: MNRFWNTKKFSLTNADGLCATLNEISQNDEVLVVQPSVLPVLNSLLTFQDLTQSTPVRKITLLDDQLSDDLPSALGSVPQMDLIFLIDVRTSLRLPPQLLDAAQKHNLSSLHIIYCRWKPSFQNTLEDTEQWQKDGFDLNSKKTHFPNVIESQLKELSNEYTLYPWDLLPFPQIDENVLLTHSLYNMENVNMYYPNLRSLQSATESILVDDMVNSLQSLIFETNSIITNVVSIGNLSKRCSHLLKKRIDEHQTENDLFIKGTLYGERTNCGLEMDLIILERNTDPITPLLTQLTYAGILDDLYEFNSGIKIKEKDMNFNYKEDKIWNDLKFLNFGSIGPQLNKLAKELQTQYDTRHKAESVHEIKEFVDSLGSLQQRQAFLKNHTTLSSDVLKVVETEEYGSFNKILELELEILMGNTLNNDIEDIILELQYQYEVDQKKILRLICLLSLCKNSLREKDYEYLRTFMIDSWGIEKCFQLESLAELGFFTSKTGKTDLHITTSKSTRLQKEYRYISQWFNTVPIEDEHAADKITNENDDFSEATFAYSGVVPLTMRLVQMLYDRSILFHNYSSQQPFILSREPRVSQTEDLIEQLYGDSHAIEESIWVPGTITKKINASIKSNNRRSIDGSNGTFHAAEDIALVVFLGGVTMGEIAIMKHLQKILGKKGINKRFIIIADGLINGTRIMNSIS
# partner: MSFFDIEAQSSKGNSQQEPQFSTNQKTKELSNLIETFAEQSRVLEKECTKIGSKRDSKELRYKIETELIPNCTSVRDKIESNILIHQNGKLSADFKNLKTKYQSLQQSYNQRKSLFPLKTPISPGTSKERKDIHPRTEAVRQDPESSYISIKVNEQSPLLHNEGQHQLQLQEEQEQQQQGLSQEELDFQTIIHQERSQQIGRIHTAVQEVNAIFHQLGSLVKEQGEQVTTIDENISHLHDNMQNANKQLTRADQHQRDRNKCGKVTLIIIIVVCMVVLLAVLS
# Variants of: B1
# Conditions: with vam3_yeast VAM3, Q12241
row,Variant,effect of a mutation on the interaction
1,D88K,decreasing interaction
2,L184P,decreasing interaction
